In patent US20120058499:

Molecular target: NEDD8-amino-luciferin, Q15843
Sequence (Q15843 whole entry, looked up): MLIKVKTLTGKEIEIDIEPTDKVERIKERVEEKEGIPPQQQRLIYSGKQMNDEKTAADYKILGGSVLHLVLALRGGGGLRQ

B1: DEN1 (NEDD8-specific protease 1) (protein)
chain: MDPVVLSYMDSLLRQSDVSLLDPPSWLNDHIIGFAFEYFANSQFHDCSDHVSFISPEVTQFIKCTSNPAEIAMFLEPLDLPNKRVVFLAINDNSNQAAGGTHWSLLVYLQDKNSFFHYDSHSRSNSVHAKQVAEKLEAFLGRKGDKLAFVEEKAPAQQNSYDCGMYVICNTEALCQNFFRQQTESLLQLLTPAYITKKRGEWKDLITTLAKK
- luminescence (RLUs), 250 nM substrate: A significant increase in signal was observed with the NEDD8-amino-luciferin substrate at a Den1 concentration at least 3-orders of magnitude lower than required for the Z-RLRGG (SEQ ID NO: 1)-amino-luciferin substrate
